One block for each binder: values may come before it.
Key:
[1] = target: T1, human cluster designation 34 (CD34) antigen on the surface of TF-1 cells (human, UniProt P28906 32-385); assay: cell capture assay, conditioned medium of HEK293T cells, TF-1 cells, luminescence
T1 construct: whole, on cells; native on TF-1 cells; also called CD34 membrane-protein; CD34-receptor
T1 sequence (looked up): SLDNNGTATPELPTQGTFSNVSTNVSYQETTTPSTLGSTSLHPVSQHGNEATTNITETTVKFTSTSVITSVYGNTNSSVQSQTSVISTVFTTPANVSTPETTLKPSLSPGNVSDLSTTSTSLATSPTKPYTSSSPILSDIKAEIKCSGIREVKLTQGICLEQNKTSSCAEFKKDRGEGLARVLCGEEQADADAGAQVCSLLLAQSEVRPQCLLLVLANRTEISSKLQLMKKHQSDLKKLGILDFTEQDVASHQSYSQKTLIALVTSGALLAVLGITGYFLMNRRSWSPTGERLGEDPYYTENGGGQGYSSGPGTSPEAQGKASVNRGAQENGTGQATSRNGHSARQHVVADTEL
Procedure: (§1) 96-well microplates (Maxisorp, Nalge Nunc) were coated with polyclonal anti-mouse IgG antibody developed in goats (Jackson Immuno Research, Suffolk, UK) or in sheep (Baxter Oncology, Halle, Germany). After washing with PBS, either conditioned medium containing the anti-CD34 antibody was added and incubated overnight at 4° C. or purified antibody was diluted in DMEM medium (Invitrogen/Gibco, Lofer, Austria) supplemented with 10% FCS (PAA Laboratories, Pasching, Austria) and 1% penicillin/streptomycin (Invitrogen/Gibco) prior to incubation. Subsequently, plates were washed with PBS and TF-1 cells (ATCC CRL-2003) were added at a cell density of 1×10⁵ cells/mL. TF-1 cells were cultivated in RPMI medium (Invitrogen/Gibco). The bound anti-CD34 antibody captures the TF-1 cells by binding to the CD34 present on the surface of the cells. After washing steps to remove the unbound cells, the Cell Titer-Glo reagent from the CellTiter-Glo Luminescent Cell Viability Assay Kit (Promega, Mannheim, Germany) was added. This reagent gives a luminescence signal proportional to the number of viable cells based on an ATP-dependent luciferase reaction (FIG. 3).
The expression of mouse IgG was first verified by the Easy Titer Mouse IgG Assay (Pierce) according to the manufacturer's instructions. To test the functionality of the antibodies the supernatants were tested in the cell capture assay. […]

[2] = target: T1, human cluster designation 34 (CD34) …; assay: cell capture assay, dilution series of purified antibody, TF-1 cells
Procedure: as §1
Furthermore, in a large scale expression experiment 23 triple flasks (Nunclon Surface, Nalge Nunc) and one cell factory (Nalge Nunc) were co-transfected and incubated for three weeks. […]

- binding result [1]: binds
B1: recombinant anti-CD34 antibody transiently expressed in HEK293T cells (co-transfection of pCMV-9C5lc and pCMV-9C5hc) (antibody, V domains shown)
VH: EVQLQQSGPELVKPGASVKISCKASGYSFIGYFMNWVMQSHGRSLEWIGRINPYNGYTFYNQKFKGKATLTVDKSSSTAHMELRSLASEDSAVYYCARHFRYDGVFYYAMDYWGQGTSVTVSS
VL: QLVLTQSSSASFSLGASAKLTCTLSSQHSTFTIEWYQQQPLKPPKYVMDLKKDGSHSTGDGVPDRFSGSSSGADRYLSISNIQPEDEATYICGVGDTIKEQFVYVFGGGTKVTVLG
notes: Tested as conditioned medium and as purified antibody, captured on plates coated with anti-mouse IgG; also called anti-CD34 9C5 antibody; transiently expressed recombinant anti-CD34 antibody

- binding result [2]: binds
B2: hybridoma-derived anti-CD34 antibody secreted by the mouse hybridoma cell line 9C5/9069 (antibody, V domains shown)
VH: B1 VH
VL: B1 VL
notes: also called hybridoma supernatant

— patent US20130143238A1 (BAXTER HEALTHCARE S A, published 2013)
